Source: article doi:10.1101/2022.02.08.479534, “FoxP3 can fold into two distinct dimerization states with divergent functional implications for T cell homeostasis”
Substitutions are numbered along the chain they refer to.

Assays:
MBP-FoxP3ΔN [1] = biological target: T1, MBP-FoxP3ΔN (Mus musculus, UniProt Q99JB6 188-423); experiment: MBP pull-down; EMSA: 0.2 uM DNA, 20 mM Tris pH 7.5, 150 mM NaCl, 1.5 mM MgCl2, 2 mM DTT, 30 min at 4 C; anti-HA bead DNA pull-down: 20 min at room temperature; the EMSA IR-FKHM4g length is taken as 31 bp; details: protein: recombinant; tags: His6-MBP; blunt
T1 sequence: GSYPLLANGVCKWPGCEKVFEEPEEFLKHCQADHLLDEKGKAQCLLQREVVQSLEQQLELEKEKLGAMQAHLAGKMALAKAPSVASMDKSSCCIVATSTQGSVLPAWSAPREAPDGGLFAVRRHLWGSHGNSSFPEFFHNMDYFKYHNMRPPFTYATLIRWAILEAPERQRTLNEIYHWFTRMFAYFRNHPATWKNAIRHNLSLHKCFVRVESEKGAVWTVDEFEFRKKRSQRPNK

FoxP3ΔN = biological target: T2, FoxP3ΔN (Mus musculus, UniProt Q99JB6 188-423); experiment: EMSA; up to 0.8 uM; nearly undetectable; EMSA: 0.2 uM DNA, 20 mM Tris pH 7.5, 150 mM NaCl, 1.5 mM MgCl2, 2 mM DTT, 30 min at 4 C; anti-HA bead DNA pull-down: 20 min at room temperature; the EMSA IR-FKHM4g length is taken as 31 bp; details: protein: recombinant; tags: His6-NusA cleaved (HRV3C); chain copies: 2; blunt
T2 sequence: T1 sequence

NusA-FoxP1RBR-forkhead = biological target: T3, NusA-FoxP1RBR-forkhead (Mus musculus, UniProt P58462 433-579); experiment: EMSA; equal to IR-FKHM4g; EMSA: 0.2 uM DNA, 20 mM Tris pH 7.5, 150 mM NaCl, 1.5 mM MgCl2, 2 mM DTT, 30 min at 4 C; anti-HA bead DNA pull-down: 20 min at room temperature; the EMSA IR-FKHM4g length is taken as 31 bp; details: protein: recombinant; tags: His6-NusA; blunt
T3 sequence: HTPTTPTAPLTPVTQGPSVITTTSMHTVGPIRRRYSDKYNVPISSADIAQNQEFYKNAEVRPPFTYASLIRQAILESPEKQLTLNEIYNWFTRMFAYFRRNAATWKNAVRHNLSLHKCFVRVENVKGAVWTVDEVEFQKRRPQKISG

NusA-FoxP4RBR-forkhead = biological target: T4, NusA-FoxP4RBR-forkhead (Mus musculus, UniProt Q9DBY0 418-577); experiment: as above; details: protein: recombinant; tags: His6-NusA; blunt
T4 sequence: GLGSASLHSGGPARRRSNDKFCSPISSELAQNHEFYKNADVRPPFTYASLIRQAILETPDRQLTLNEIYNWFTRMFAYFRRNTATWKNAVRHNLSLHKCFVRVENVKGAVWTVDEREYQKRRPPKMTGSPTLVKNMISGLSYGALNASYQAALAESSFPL

NusA-FoxP2RBR-forkhead = biological target: T5, NusA-FoxP2RBR-forkhead (Mus musculus, UniProt P58463 447-588); experiment: as above; details: protein: recombinant; tags: His6-NusA; blunt
T5 sequence: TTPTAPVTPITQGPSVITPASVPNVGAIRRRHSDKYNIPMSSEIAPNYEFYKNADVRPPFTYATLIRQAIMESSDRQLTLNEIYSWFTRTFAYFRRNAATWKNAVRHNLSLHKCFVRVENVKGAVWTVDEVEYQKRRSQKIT

FoxP3ΔN;NFAT1 (394-680) [2] = biological target: T6, FoxP3ΔN;NFAT1 (394-680) (Mus musculus;Mus musculus, UniProt Q99JB6;Q60591 188-423;394-680, |); experiment: restriction enzyme protection; 1.6 uM FoxP3, 0.4 uM NFAT; XhoI and BamHI protected, EcoRI accessible; EMSA: 0.2 uM DNA, 20 mM Tris pH 7.5, 150 mM NaCl, 1.5 mM MgCl2, 2 mM DTT, 30 min at 4 C; anti-HA bead DNA pull-down: 20 min at room temperature; the EMSA IR-FKHM4g length is taken as 31 bp; details: protein: recombinant;recombinant; tags: His6-NusA cleaved (HRV3C);His6-NusA cleaved; blunt
T6 sequence 1: T1 sequence
T6 sequence 2: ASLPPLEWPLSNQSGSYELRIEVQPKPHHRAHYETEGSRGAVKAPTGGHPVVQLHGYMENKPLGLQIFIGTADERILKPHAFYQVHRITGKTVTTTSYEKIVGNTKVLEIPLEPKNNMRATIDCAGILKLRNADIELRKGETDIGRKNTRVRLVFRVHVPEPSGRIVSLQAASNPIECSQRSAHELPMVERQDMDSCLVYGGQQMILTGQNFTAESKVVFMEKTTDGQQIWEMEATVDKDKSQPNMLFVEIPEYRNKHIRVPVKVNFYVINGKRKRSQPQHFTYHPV

MBP-FoxP3ΔN [3] = biological target: T1, MBP-FoxP3ΔN; experiment: MBP pull-down; not efficiently bound; EMSA: 0.2 uM DNA, 20 mM Tris pH 7.5, 150 mM NaCl, 1.5 mM MgCl2, 2 mM DTT, 30 min at 4 C; anti-HA bead DNA pull-down: 20 min at room temperature; the EMSA IR-FKHM4g length is taken as 31 bp; details: protein: recombinant; tags: His6-MBP; blunt
FoxP3ΔN;NFAT1 (394-680) [4] = biological target: T6, FoxP3ΔN;NFAT1 (394-680); experiment: restriction enzyme protection; 3.2 uM FoxP3, 0.4 uM NFAT; XhoI protected, BamHI accessible; EMSA: 0.2 uM DNA, 20 mM Tris pH 7.5, 150 mM NaCl, 1.5 mM MgCl2, 2 mM DTT, 30 min at 4 C; anti-HA bead DNA pull-down: 20 min at room temperature; the EMSA IR-FKHM4g length is taken as 31 bp; details: protein: recombinant;recombinant; tags: His6-NusA cleaved (HRV3C);His6-NusA cleaved; blunt
MBP-FoxP3ΔN [5] = biological target: T1, MBP-FoxP3ΔN; experiment: MBP pull-down; strong; EMSA: 0.2 uM DNA, 20 mM Tris pH 7.5, 150 mM NaCl, 1.5 mM MgCl2, 2 mM DTT, 30 min at 4 C; anti-HA bead DNA pull-down: 20 min at room temperature; the EMSA IR-FKHM4g length is taken as 31 bp; details: protein: recombinant; tags: His6-MBP; blunt

B1: FKHM-seq5 (dsDNA)
DNA 1: TTAGGAAAATTTGTTTACTCGAAATGCAAAA
DNA 2: TTTTGCATTTCGAGTAAACAAATTTTCCTAA
B1: binds (MBP-FoxP3ΔN [1]).

B2: IR-seq3 (dsDNA)
DNA 1: ATGATGCATCTCGAGATGCATCAT
DNA 2: ATGATGCATCTCGAGATGCATCAT
B2: no binding (MBP-FoxP3ΔN [1]).

B3: Major FKHM-seq5 (dsDNA)
DNA 1: AAATGTTTACTAGGAATGCAATGA
DNA 2: TCATTGCATTCCTAGTAAACATTT
B3: binds (MBP-FoxP3ΔN [1]).

B4: FKHM-seq2 (dsDNA)
DNA 1: ATTTGTTTACTCGAGACGCAAAAT
DNA 2: ATTTTGCGTCTCGAGTAAACAAAT
B4: binds (MBP-FoxP3ΔN [1]).

B5: IR-seq2 (dsDNA)
DNA 1: ATTTTGCGTCTCGAGACGCAAAAT
DNA 2: ATTTTGCGTCTCGAGACGCAAAAT
B5: no binding (MBP-FoxP3ΔN [1]).

B6: sFKHM (31bp) (dsDNA)
DNA 1: TTAGGAAAATTTGTTTACTCGACGCGGCAAA
DNA 2: TTTGCCGCGTCGAGTAAACAAATTTTCCTAA
B6: no binding (FoxP3ΔN); binds (NusA-FoxP1RBR-forkhead); binds (NusA-FoxP4RBR-forkhead). B6: binds (NusA-FoxP2RBR-forkhead).

B7: IR-FKHM4g (47bp) (dsDNA)
DNA 1: TTAGGAAAATTTGTTTACTCGAGTAAACAGTGGATCCGAATTCATAT
DNA 2: ATATGAATTCGGATCCACTGTTTACTCGAGTAAACAAATTTTCCTAA
B7: binds (FoxP3ΔN;NFAT1 (394-680) [2]).

B8: IR-seq1 (dsDNA)
DNA 1: ATTTCGCGTCTCGAGACGCGAAAT
DNA 2: ATTTCGCGTCTCGAGACGCGAAAT
B8: no binding (MBP-FoxP3ΔN [1]).

B9: IR-seq5 (dsDNA)
DNA 1: TTAGGAAAATTTTGCATTTCGAAATGCAAAA
DNA 2: TTTTGCATTTCGAAATGCAAAATTTTCCTAA
B9: no binding (MBP-FoxP3ΔN [3]).

B10: IR-seq9 (dsDNA)
DNA 1: TTAGGAAAATTTGTTTTATCGATAAAACAAA
DNA 2: TTTGTTTTATCGATAAAACAAATTTTCCTAA
B10: no binding (MBP-FoxP3ΔN [3]).

B11: IR-FKHM11g (54bp) (dsDNA)
DNA 1: TTAGGAAAATTTGTTTACTCGAGTGTACGGTAAACAGTGGATCCGAATTCATAT
DNA 2: ATATGAATTCGGATCCACTGTTTACCGTACACTCGAGTAAACAAATTTTCCTAA
B11: binds (FoxP3ΔN;NFAT1 (394-680) [4]).

B12: FKHM-seq8 (dsDNA)
DNA 1: TTAGGAAAATTTGTTTACTCGAGGAAACAAA
DNA 2: TTTGTTTCCTCGAGTAAACAAATTTTCCTAA
B12: binds (MBP-FoxP3ΔN [1]).

B13: IR-seq11 (dsDNA)
DNA 1: B10 DNA 1 with T17A, A24T
DNA 2: B10 DNA 2 with T8A, A15T
B13: no binding (MBP-FoxP3ΔN [3]).

B14: FKHM-seq9 (dsDNA)
DNA 1: B12 DNA 1 with G23T, G24A
DNA 2: B12 DNA 2 with C8T, C9A
B14: binds (MBP-FoxP3ΔN [1]).

B15: IR-seq8 (dsDNA)
DNA 1: B12 DNA 1 with A17C
DNA 2: B12 DNA 2 with T15G
B15: no binding (MBP-FoxP3ΔN [3]).

B16: FKHM-seq11 (dsDNA)
DNA 1: B12 DNA 1 with G23T, G24T
DNA 2: B12 DNA 2 with C8A, C9A
B16: binds (MBP-FoxP3ΔN [1]).

B17: Major seq8-seq9 (dsDNA)
DNA 1: GTTTGTTTCCCAGGTAAAACAACC
DNA 2: GGTTGTTTTACCTGGGAAACAAAC
B17: binds (MBP-FoxP3ΔN [5]).

B18: FKHM-seq3 (dsDNA)
DNA 1: ATTTGTTTACTCGAGATGCATCAT
DNA 2: ATGATGCATCTCGAGTAAACAAAT
B18: binds (MBP-FoxP3ΔN [1]).

B19: sFKHM (22bp) (dsDNA)
DNA 1: TTAGGAAAATTTGTTTACTCGA
DNA 2: TCGAGTAAACAAATTTTCCTAA
B19: no binding (FoxP3ΔN).

B20: FKHM-seq1 (dsDNA)
DNA 1: ATTTGTTTACTCGAGACGCGAAAT
DNA 2: ATTTCGCGTCTCGAGTAAACAAAT
B20: binds (MBP-FoxP3ΔN [1]).
